According to paper PMC7239654, “R-spondins engage heparan sulfate proteoglycans to potentiate WNT signaling” (eLife, 2020):

Key:
glycosylated GPC3 = target: T1, glycosylated GPC3 (Homo sapiens (assumed), UniProt P51654, heparan sulfate chains (glycosylated)); test: ELISA; 96-well plate coated with 5 μg/ml of the GPC protein; HS20 added in serial 2-fold dilutions starting from 1 μg/ml, 1 hr at RT; washed with PBST; detected with goat anti-human kappa chain HRP conjugate and TMB, absorbance at 450 nm; settings: both partners purified
T1 construct: glypican 3 (GPC3), glycosylated recombinant protein, R and D Systems Cat. # 2119-GP; also called glypican 3; source: bought: R and D Systems

glycosylated GPC4 = target: T2, glycosylated GPC4 (Homo sapiens (assumed), UniProt O75487, heparan sulfate chains (glycosylated)); test: as above; settings: both partners purified
T2 construct: glypican 4 (GPC4), glycosylated recombinant protein, R and D Systems Cat. # 9195-GP; also called glypican 4; source: bought: R and D Systems
T2 sequence (O75487 19-529): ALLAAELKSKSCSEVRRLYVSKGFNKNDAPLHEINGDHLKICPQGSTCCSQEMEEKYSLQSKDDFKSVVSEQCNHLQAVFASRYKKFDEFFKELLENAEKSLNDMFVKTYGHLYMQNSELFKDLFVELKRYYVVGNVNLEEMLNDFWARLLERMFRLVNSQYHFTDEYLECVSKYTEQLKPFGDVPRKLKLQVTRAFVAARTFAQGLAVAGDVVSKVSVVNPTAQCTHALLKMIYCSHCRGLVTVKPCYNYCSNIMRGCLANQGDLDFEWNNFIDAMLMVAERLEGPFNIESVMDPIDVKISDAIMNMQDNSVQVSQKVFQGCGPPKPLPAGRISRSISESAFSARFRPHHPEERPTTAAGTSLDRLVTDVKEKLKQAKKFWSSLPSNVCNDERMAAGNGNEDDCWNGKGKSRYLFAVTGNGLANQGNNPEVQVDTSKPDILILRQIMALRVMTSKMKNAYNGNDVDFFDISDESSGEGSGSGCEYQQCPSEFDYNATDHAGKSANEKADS

T1 sequence (P51654 25-580): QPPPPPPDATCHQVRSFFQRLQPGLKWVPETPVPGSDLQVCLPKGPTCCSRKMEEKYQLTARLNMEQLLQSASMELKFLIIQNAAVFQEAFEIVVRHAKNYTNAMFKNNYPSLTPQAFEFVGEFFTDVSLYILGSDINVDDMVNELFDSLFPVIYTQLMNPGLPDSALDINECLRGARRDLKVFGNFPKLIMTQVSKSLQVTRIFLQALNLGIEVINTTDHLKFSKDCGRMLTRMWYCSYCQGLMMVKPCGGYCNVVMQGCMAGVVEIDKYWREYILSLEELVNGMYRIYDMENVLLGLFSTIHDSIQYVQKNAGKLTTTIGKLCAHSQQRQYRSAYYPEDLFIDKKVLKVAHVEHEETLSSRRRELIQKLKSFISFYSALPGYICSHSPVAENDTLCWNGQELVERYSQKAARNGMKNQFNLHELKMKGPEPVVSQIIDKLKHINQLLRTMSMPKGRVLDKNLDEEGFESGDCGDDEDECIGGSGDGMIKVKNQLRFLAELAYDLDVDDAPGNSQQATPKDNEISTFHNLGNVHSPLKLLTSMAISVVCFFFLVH

binding result (glycosylated GPC3): binds
binding result (glycosylated GPC4): binds
B1: HS20 scFv (scFv, V domains shown)
VH: EVQLLESGGGLVQPGGSLRLSCAASGFTFSSYAMSWVRQAPGKGLEWVSTIQKQGLPTQYADSVKGRFTISRDNSKNTLYLQMNSLRAEDTAVYYCAKNRAKFDYWGQGTLVTVSS
VL: DIQMTQSPSSLSASVGDRVTITCRASQSISSYLNWYQQKPGKAPKLLIYAASMLQSGVPSRFSGSGSGTDFTLTISSLQPEDFATYYCQQNRGFPLTFGQGTKVEIK
notes: it was detected through its human kappa chain
